Source: the supplement of paper PMC7877785
± gives the uncertainty stated by the source.

Assay: self-splicing fitness, log relative to wild type (ln ratio); higher = more splicing; Tetrahymena group I intron in knt gene, E. coli kanamycin selection, DiMSum; sequences stand for … in CUCUCU…GGAGGGAAAAGUUAUCAGGCAUGCACCUGGUAGCUAGUCUUUAAACCAAUAGAUUGCAUCGGUUUAAAAGGCAAGACCGUCAAAUUGCGGGAAAGGGGUCAACAGCCGUUCAGUACCAAGUCUCAGGGGAAACUUUGAGAUGGCCUUGCAAAGGGUAUGGUAAUAAGCUGACGGACAUGGUCCUAACCACGCAGCCAAGUCCUAAGUCAACAGAUCUUCUGUUGAUAUGGAUGCAGUUCACAGACUAAAUGUCGGUCGGGGAAGAUGUAUUCUUCUCAUAAGAUAUAGUCGGACCUCUCCUUAAUGGGAGCUAGCGGAUGAAGUGAUGCAACACUGGAGCCGCUGGGAACUAAUUUGUAUGCGAAAGUAUAUUGAUUAGUUUUGGAGUACUCGUGGUCG
Procedure, shortened: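 The eight P1ex-region nucleotides of an intron in the knt kanamycin-resistance gene on pET-22b(+) were all randomised and the library put into E. coli BL21(DE3). Six replicate transformations were grown overnight at 37°C or 30°C on LB agar with or without 25 μg/mL kanamycin, together with 100 μg/mL carbenicillin, 50 μM IPTG and 0.2% rhamnose. Colonies were pooled and amplicon-sequenced on an Illumina HiSeq 2500. Fitness from DiMSum is the error-weighted combination of wild-type-normalised replicate fold changes, kanamycin over none.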

| Sequence | self-splicing fitness (ln) (30 °C) | self-splicing fitness (ln) (37 °C) |
| --- | --- | --- |
| AAAUAGCAAUAUUACGUGAC | -1.53 ± 0.2 |  |
| AAAUAGCAAUAUUACGUGUA | -2.49 ± 0.091 | -1.44 ± 0.09 |
| AAAUAGCAAUAUUACGUGUU | -1.72 ± 0.083 | -1.75 ± 0.11 |
| AACAAGCAAUAUUACGAAGA | -2.78 ± 0.12 | -2.12 ± 0.14 |
| AACAAGCAAUAUUACGACAU | -0.261 ± 0.01 | 0.0604 ± 0.032 |
| AACAAGCAAUAUUACGAGCC | -3.25 ± 0.47 | -2.09 ± 0.36 |
| AACAAGCAAUAUUACGAGUU | -3.35 ± 0.099 | -1.5 ± 0.091 |
| AACAAGCAAUAUUACGAUAC | -3.73 ± 0.19 | -1.71 ± 0.12 |
| AACAAGCAAUAUUACGAUCG | -1.4 ± 0.076 | -0.996 ± 0.097 |
| AACAAGCAAUAUUACGCCAU | -2.66 ± 0.11 | -2.08 ± 0.13 |
| AACAAGCAAUAUUACGCCGA | -1.45 ± 0.12 | -1.27 ± 0.12 |
| AACAAGCAAUAUUACGCCGG | -0.692 ± 0.075 | -0.963 ± 0.12 |
| AACAAGCAAUAUUACGCGUG | -1.35 ± 0.04 | -0.814 ± 0.056 |
| AACAAGCAAUAUUACGGGUC | -1.68 ± 0.14 | -1.65 ± 0.17 |
| AACAAGCAAUAUUACGGUGG | -1.84 ± 0.06 | -0.813 ± 0.073 |
| AACAAGCAAUAUUACGUCAG | -3.64 ± 0.16 | -2.39 ± 0.14 |
| AACAAGCAAUAUUACGUCCA | -1.12 ± 0.068 | -0.468 ± 0.076 |
| AACAAGCAAUAUUACGUCUA | -0.68 ± 0.053 | 0.247 ± 0.063 |
| AACAAGCAAUAUUACGUGAG | -1.74 ± 0.05 | -1.01 ± 0.067 |
| AACCAGCAAUAUUACGACAG | -2.65 ± 0.083 | -0.775 ± 0.099 |
| AACCAGCAAUAUUACGACUU | 0.018 ± 0.059 | 0.437 ± 0.077 |
| AACCAGCAAUAUUACGAGAG | -3.44 ± 0.15 | -2.06 ± 0.12 |
| AACCAGCAAUAUUACGAGUC | -1.82 ± 0.1 | -0.825 ± 0.11 |
| AACCAGCAAUAUUACGAUAA | -1.35 ± 0.058 | -0.457 ± 0.069 |

| Sequence | self-splicing fitness (ln) (30 °C) | self-splicing fitness (ln) (37 °C) |
| --- | --- | --- |
| AACCAGCAAUAUUACGAUGA | -0.753 ± 0.069 | -0.507 ± 0.08 |
| AACCAGCAAUAUUACGCAGC | -2.4 ± 0.11 | -1.29 ± 0.11 |
| AACCAGCAAUAUUACGCCAG | -2.46 ± 0.14 | -1.72 ± 0.18 |
| AACCAGCAAUAUUACGCCCG | -0.353 ± 0.1 | -0.271 ± 0.17 |
| AACCAGCAAUAUUACGCGUC | -2.08 ± 0.089 | -1.12 ± 0.095 |
| AACCAGCAAUAUUACGGACA | -0.462 ± 0.077 | -0.0476 ± 0.095 |
| AACCAGCAAUAUUACGGCCA | -0.365 ± 0.067 | -0.114 ± 0.085 |
| AACCAGCAAUAUUACGGGAG | -0.751 ± 0.036 | -0.132 ± 0.051 |
| AACCAGCAAUAUUACGGGCC | -1.4 ± 0.082 | -0.824 ± 0.11 |
| AACCAGCAAUAUUACGGGUA | -0.823 ± 0.045 | -0.376 ± 0.055 |
| AACCAGCAAUAUUACGGUAC | -2.82 ± 0.12 | -1.1 ± 0.088 |
| AACCAGCAAUAUUACGGUCC | -0.721 ± 0.089 | -0.491 ± 0.12 |
| AACCAGCAAUAUUACGUCCU | 0.026 ± 0.043 | -0.134 ± 0.053 |
| AACCAGCAAUAUUACGUGAC | -2.59 ± 0.087 | -1.37 ± 0.1 |
| AACCAGCAAUAUUACGUUGG | -3.14 ± 0.12 | -2.42 ± 0.13 |
| AACGAGCAAUAUUACGAACC | -3.57 ± 0.49 | -1.66 ± 0.35 |
| AACGAGCAAUAUUACGACCG | -3.46 ± 0.34 |  |
| AACGAGCAAUAUUACGACGC | -2 ± 0.14 | -0.785 ± 0.18 |
| AACGAGCAAUAUUACGACGU | -0.822 ± 0.09 | -0.593 ± 0.089 |
| AACGAGCAAUAUUACGAGGA | -2.36 ± 0.28 | -2.34 ± 0.42 |
| AACGAGCAAUAUUACGCCGA | -2.83 ± 0.25 | -2.42 ± 0.17 |
| AACGAGCAAUAUUACGGAUC | -2.26 ± 0.19 | -2.31 ± 0.17 |
| AACGAGCAAUAUUACGGCAA | -1.49 ± 0.27 | -1.9 ± 0.24 |
| AACGAGCAAUAUUACGGCAU | -1.91 ± 0.1 | -0.446 ± 0.12 |

| Sequence | self-splicing fitness (ln) (30 °C) | self-splicing fitness (ln) (37 °C) |
| --- | --- | --- |
| AACGAGCAAUAUUACGGCGU | -1.84 ± 0.098 | -0.572 ± 0.088 |
| AACGAGCAAUAUUACGGCUG | -1.6 ± 0.14 | -0.126 ± 0.16 |
| AACGAGCAAUAUUACGGGAG | -3.14 ± 0.17 | -2.72 ± 0.19 |
| AACGAGCAAUAUUACGGGAU | -4.34 ± 0.19 | -3.33 ± 0.23 |
| AACGAGCAAUAUUACGGUUC | -2.87 ± 0.18 | -2.09 ± 0.19 |
| AACGAGCAAUAUUACGUAAA | -3 ± 0.24 | -2.49 ± 0.33 |
| AACGAGCAAUAUUACGUAGC | -3.51 ± 0.19 | -2.44 ± 0.17 |
| AACGAGCAAUAUUACGUCAA | -3.08 ± 0.23 | -3.35 ± 0.3 |
| AACGAGCAAUAUUACGUGAU | -3.03 ± 0.18 | -0.913 ± 0.13 |
| AACGAGCAAUAUUACGUUCU | -2.19 ± 0.14 | -1.93 ± 0.2 |
| AACUAGCAAUAUUACGACGC | -0.567 ± 0.1 | -0.205 ± 0.15 |
| AACUAGCAAUAUUACGACGU | -0.165 ± 0.069 | 0.653 ± 0.1 |
| AACUAGCAAUAUUACGCCAG | -1.99 ± 0.16 | -0.848 ± 0.23 |
| AACUAGCAAUAUUACGCCAU | -2.6 ± 0.15 | -2.42 ± 0.18 |
| AACUAGCAAUAUUACGCCCA | -0.951 ± 0.14 | 0.0227 ± 0.17 |
| AACUAGCAAUAUUACGCCCC | 0.0551 ± 0.17 | -0.32 ± 0.18 |
| AACUAGCAAUAUUACGCCUU | -0.414 ± 0.073 | 0.376 ± 0.1 |
| AACUAGCAAUAUUACGCGCU | -1.79 ± 0.12 | -0.454 ± 0.12 |
| AACUAGCAAUAUUACGCUGA | -2.18 ± 0.14 | -1.91 ± 0.13 |
| AACUAGCAAUAUUACGGAAA | -2.54 ± 0.2 | -0.697 ± 0.13 |
| AACUAGCAAUAUUACGGCAC | -0.766 ± 0.079 | -0.192 ± 0.11 |
| AACUAGCAAUAUUACGGCAU | -0.42 ± 0.062 | -0.127 ± 0.075 |
| AACUAGCAAUAUUACGUAAC | 0.169 ± 0.15 | -1.5 ± 0.3 |
| AACUAGCAAUAUUACGUACU | -0.0487 ± 0.053 | 0.151 ± 0.073 |

| Sequence | self-splicing fitness (ln) (30 °C) | self-splicing fitness (ln) (37 °C) |
| --- | --- | --- |
| AACUAGCAAUAUUACGUAUC | -3.83 ± 0.34 | -2.38 ± 0.29 |
| AACUAGCAAUAUUACGUAUU | -2.04 ± 0.082 | -0.837 ± 0.11 |
| AACUAGCAAUAUUACGUGCU | -2.24 ± 0.083 | -1.97 ± 0.12 |
| AACUAGCAAUAUUACGUGGG | -3.79 ± 0.23 | -2.38 ± 0.17 |
| AAGAAGCAAUAUUACGAAGG | -3.33 ± 0.38 | -2.01 ± 0.36 |
| AAGAAGCAAUAUUACGACUA | 0.152 ± 0.072 | 0.144 ± 0.1 |
| AAGAAGCAAUAUUACGCACG | -1.26 ± 0.082 | -0.749 ± 0.12 |
| AAGAAGCAAUAUUACGCAUA | -1.29 ± 0.11 | -0.0901 ± 0.12 |
| AAGAAGCAAUAUUACGCUCG | -0.487 ± 0.078 | -0.257 ± 0.12 |
| AAGAAGCAAUAUUACGCUUU | -4.1 ± 0.42 | -2.58 ± 0.21 |
| AAGAAGCAAUAUUACGGCCA | -0.587 ± 0.097 | -0.00293 ± 0.12 |
| AAGAAGCAAUAUUACGGCGG | -0.903 ± 0.1 | -0.664 ± 0.12 |
| AAGAAGCAAUAUUACGGGCA | -0.698 ± 0.092 | -0.225 ± 0.11 |
| AAGAAGCAAUAUUACGGGGC |  | -2.95 ± 0.26 |
| AAGAAGCAAUAUUACGGUUU | -1.44 ± 0.068 | -0.413 ± 0.087 |
| AAGAAGCAAUAUUACGUCAG | -2.66 ± 0.2 | -1.91 ± 0.16 |
| AAGAAGCAAUAUUACGUCAU | -1.81 ± 0.075 | -1.04 ± 0.1 |
| AAGAAGCAAUAUUACGUCGA | -0.754 ± 0.097 | 0.0801 ± 0.14 |
| AAGAAGCAAUAUUACGUUAA | -2.77 ± 0.16 | -0.841 ± 0.11 |
| AAGAAGCAAUAUUACGUUUG | -2.45 ± 0.12 | -2.26 ± 0.18 |
| AAGCAGCAAUAUUACGAAUG | -3.74 ± 0.18 | -2.45 ± 0.16 |
| AAGCAGCAAUAUUACGACCU | 0.301 ± 0.08 | 0.149 ± 0.11 |
| AAGCAGCAAUAUUACGAUAA | -1.69 ± 0.12 | -1.16 ± 0.13 |
| AAGCAGCAAUAUUACGAUAU | -0.287 ± 0.076 | -0.0114 ± 0.099 |
